Source: article PMC8836349, “Characterization of adenine phosphoribosyltransferase (APRT) activity in Trypanosoma brucei brucei: Only one of the two isoforms is kinetically active” (PLoS Neglected Tropical Diseases, 2022)

B1: Trypanosoma brucei brucei adenine phosphoribosyltransferase 1 (APRT1, Tb927.7.1780) (enzyme, UniProt Q57V32 1-235, looked up)
chain: MSLVEVLPNYFTLSKDSPLRKKFEKVYKWYSPAFSPHDVPRFAEVGNITENPEVMRGIRDFFVDRYKNLQQPITHILGFDSRGFLLGPMIAVELNVPFVLIRKANKIAGVIIKSEPYTKEYAAESEECMTVRFGSFDKNSRVVLIDDVIATGGTMLAGVQLVDACGATLVEVAGILGLTFLKGTQPAHTFAGGRYSNVPFVTLVDETVLSDENCGDPLHHKGSRIISCAEAKKLI
notes: APRT1 of Trypanosoma brucei brucei, Tb927.7.1780, UniProt Q57V32; the ORF, codon optimised for P. pastoris, cloned into a pPICZ vector; tags were removed with TEV protease (tag-less APRT1); also called TbbAPRT1; source: Pichia pastoris strain smPP, purified (Ni-NTA, TEV cleavage, second Ni-NTA)

Assays:
APRT1 (TbbAPRT1) = biological target: T1, APRT1 (TbbAPRT1) (Trypanosoma brucei, UniProt Q57V32); assay: coupled myokinase/pyruvate kinase/lactate dehydrogenase assay, NADH at […] nm; assay type: biochemical; conditions: read-out: Apparent inhibition parameters^b
T1 construct: gene Tb07.43M14.180; full-length ORF, codon optimized, expressed in Pichia pastoris; His6/mCherry tag removed with TEV protease; homodimer
T1 sequence (Q57V32 1-235): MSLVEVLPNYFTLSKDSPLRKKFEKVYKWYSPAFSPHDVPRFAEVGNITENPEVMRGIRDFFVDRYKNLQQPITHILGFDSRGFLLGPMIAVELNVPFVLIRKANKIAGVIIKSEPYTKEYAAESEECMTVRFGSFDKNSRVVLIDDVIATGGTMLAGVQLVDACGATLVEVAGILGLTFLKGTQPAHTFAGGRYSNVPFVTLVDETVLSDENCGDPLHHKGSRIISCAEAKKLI

[1] = biological target: the molecule itself; assay: cross-linking; dimethyl suberimidate (DMS) 8.7 mM, 0.2 M triethanolamine pH 8.5, purified APRT at 17.8, 35, 69 or 140 ug mL^-1, RT, 5-8 hours; 12% SDS-PAGE, Coomassie Blue
purified protein [2] = substrate: O=P(O)(O)OC[C@H]1O[C@H](OP(=O)(O)OP(=O)(O)O)[C@H](O)[C@@H]1O; assay: purified protein; assay type: biochemical, Trypanosoma brucei; conditions: varied PRPP (10-250 μM) at fixed adenine 1-20 μM, 100 mM HEPES pH 7.8, 25 mM MgCl2, room temperature
purified protein [3] = substrate: Nc1ncnc2nc[nH]c12; assay: purified protein; assay type: biochemical, Trypanosoma brucei; conditions: 100 mM HEPES pH 7.8, 25 mM MgCl2, room temperature
[4] = biological target: B1; assay: cell-based or functional assay
[5] = biological target: the molecule itself; assay: SEC; Superdex 200 Increase 10/300 GL; 200 uL of APRT1 at 13.8 mg mL^-1 or APRT2 at 10.8 mg mL^-1; 50 mM HEPES pH 7.8, 300 mM NaCl, 50 mM L-arginine, 50 mM L-glutamate; column calibrated with standards of 1,350 to 670,000 Da
[6] = kinetic dissociation constant from free enzyme, varied adenine (1.5-50 μM) at fixed PRPP 25-150 μM

Nc1ncnc2cc[nH]c12 [9-deazaadenine]
Ki (APRT1 (TbbAPRT1)): 156 ± 21 µM

B1
stoichiometry N [1]: 2 | Km (purified protein [2]): 68 ± 11 µM | kcat (purified protein [2]): 0.61 ± 0.04 s⁻¹ | kcat/Km (purified protein [2]): 9000 ± 1600 M⁻¹ s⁻¹ | Km (purified protein [3]; [6]): 2.2 ± 0.7 µM | kcat (purified protein [3]; [6]): 0.62 ± 0.02 s⁻¹

B2: APRT2 (Trypanosoma brucei brucei TREU927) (protein)
chain: MSQYDAILTERHPHHFTLADTHPLAKELHANIFGESDLTHANCAHVYDISSLTEKPALFRKVIEFLKCRYETMGDTGPTHIIGVESRGYIIGAPLAVALGIPFVTARVTKRFPSSFVPEGDDLKYLPMSRSIRNDSIPPRARVLIVDDFIGTGSTMLAALRLADIVAAQVVEVLTVCDVASLGGIKIIRESDDEMFKETPIFTLIHFKLSPREAEEQLEFVNSYITRSRL
notes: full-length ORF, codon optimized, expressed in Pichia pastoris; N- or C-terminal His6/mCherry tag removed with TEV protease; weak dimer
Km (purified protein [3]; adenine 50-500 μM, 1 mM PRPP): 253 ± 4 µM | kcat (purified protein [3]; adenine 50-500 μM, 1 mM PRPP): 0.003 ± 0.0002 s⁻¹ | kcat/Km (purified protein [3]; adenine 50-500 μM, 1 mM PRPP): 12 ± 0.8 M⁻¹ s⁻¹

B3: APRT2-Ntag (Trypanosoma brucei brucei putative adenine phosphoribosyltransferase 2, Tb927.7.1790, expressed from pPICZ-Ntag) (natural protein, UniProt Q57V31 1-230, looked up)
chain: MSQYDAILTERHPHHFTLADTHPLAKELHANIFGESDLTHANCAHVYDISSLTEKPALFRKVIEFLKCRYETMGDTGPTHIIGVESRGYIIGAPLAVALGIPFVTARVTKRFPSSFVPEGDDLKYLPMSRSIRNDSIPPRARVLIVDDFIGTGSTMLAALRLADIVAAQVVEVLTVCDVASLGGIKIIRESDDEMFKETPIFTLIHFKLSPREAEEQLEFVNSYITRSRL
notes: APRT2 of Trypanosoma brucei brucei, Tb927.7.1790, UniProt Q57V31; the ORF, codon optimised for P. pastoris, cloned into pPICZ-Ntag; Tags removed with TEV protease; measured native-MS mass 25,860 Da (theoretical 25,853 Da); also called TbbAPRT2; source: Pichia pastoris strain smPP, purified (Ni-NTA, TEV cleavage, second Ni-NTA); not shown: His6, N-terminal, cleaved; mCherry, N-terminal, cleaved
stoichiometry N [1]: 2

B4: APRT2-Ctag (Trypanosoma brucei brucei putative adenine phosphoribosyltransferase 2, Tb927.7.1790, expressed from pPICZ-Ctag) (natural protein, UniProt Q57V31 1-230, looked up)
chain: MSQYDAILTERHPHHFTLADTHPLAKELHANIFGESDLTHANCAHVYDISSLTEKPALFRKVIEFLKCRYETMGDTGPTHIIGVESRGYIIGAPLAVALGIPFVTARVTKRFPSSFVPEGDDLKYLPMSRSIRNDSIPPRARVLIVDDFIGTGSTMLAALRLADIVAAQVVEVLTVCDVASLGGIKIIRESDDEMFKETPIFTLIHFKLSPREAEEQLEFVNSYITRSRL
notes: APRT2 of Trypanosoma brucei brucei, Tb927.7.1790, UniProt Q57V31; the ORF, codon optimised for P. pastoris, cloned into pPICZ-Ctag; Tags removed with TEV protease; measured native-MS mass 26,637 Da (theoretical 26,647 Da), so residues of the TEV site are likely left at the C-terminus; also called TbbAPRT2; source: Pichia pastoris strain smPP, purified (Ni-NTA, TEV cleavage, second Ni-NTA); not …
stoichiometry N [1]: 2

B5: APRT2 (Trypanosoma brucei brucei putative adenine phosphoribosyltransferase 2, Tb927.7.1790), expressed in P. pastoris, vector not told (natural protein, UniProt Q57V31 1-230, looked up)
chain: MSQYDAILTERHPHHFTLADTHPLAKELHANIFGESDLTHANCAHVYDISSLTEKPALFRKVIEFLKCRYETMGDTGPTHIIGVESRGYIIGAPLAVALGIPFVTARVTKRFPSSFVPEGDDLKYLPMSRSIRNDSIPPRARVLIVDDFIGTGSTMLAALRLADIVAAQVVEVLTVCDVASLGGIKIIRESDDEMFKETPIFTLIHFKLSPREAEEQLEFVNSYITRSRL
notes: APRT2 of Trypanosoma brucei brucei, Tb927.7.1790, UniProt Q57V31; the ORF, codon optimised for P. pastoris, cloned into a pPICZ vector; tags were removed with TEV protease; also called TbbAPRT2; source: Pichia pastoris strain smPP, purified (Ni-NTA, TEV cleavage, second Ni-NTA)
fold decrease in AMP formation (APRT activity) of an equimolar mixture pre-incubated 4 hours on ice (100 nM APRT1: 100 nM APRT2) against 200 nM APRT1 alone and 100 nM APRT1 alone [4]: 2 fold | stoichiometry N [5]: 2
